In publication PMC5076566 (Cell, 2016):
Values belong to the binder of their own block, whether it stands above or below them.

Assays:
[1] = target: the molecule itself; experiment: polymerisation and hydrogel formation
[2] = target: T1, His-3xFlag tagged D290V hnRNPA2 LCS (181-341 aa) (human, UniProt P22626-2 181-341, D290V); experiment: co-IP
T1 sequence (looked up): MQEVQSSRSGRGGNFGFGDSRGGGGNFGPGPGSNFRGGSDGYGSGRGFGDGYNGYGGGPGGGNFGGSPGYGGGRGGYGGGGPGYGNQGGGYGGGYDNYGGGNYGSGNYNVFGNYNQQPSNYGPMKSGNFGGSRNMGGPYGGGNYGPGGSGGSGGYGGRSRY

[3] = target: GFP:hnRNPA1 ΔRRM (186-320), the C-terminal LC domain (human, UniProt P09651-2 186-320); experiment: co-IP
[4] = target: GFP:hnRNPA1 full length (residue 2-320) (human, UniProt P09651-2 2-320); experiment: co-IP
[5] = target: Recombinant human vimentin, full length (2-466 AA), assembled into intermediate filaments (human, UniProt P08670 2-466); experiment: transmission electron microscopy of filaments mixed with test protein

B1: mCherry:vimentin head domain (2-95) (domain or fragment, human, UniProt P08670 2-95, looked up)
chain: STRSVSSSSYRRMFGGPGTASRPSSSRSYVTTSTRTYSLGSALRPSTSRSLYASSPGGVYATRSSAVRLRSSVPGVRLLQDSVDFSLADAINTE
binding result [1]: binds

binding result [2]: binds
binding result [3]: binds
binding result [4]: binds
Binder: PRPRPRPRPRPRPRPRPRPRPRPRPRPRPRPRPRPRPRPR [PR20HA peptide (20 repeats of PR with an HA epitope tag at the C-terminus)]

binding result [5]: binds
B2: GFP:FUS LC domain (residue 2-214) (domain or fragment, UniProt P35637 2-214, looked up)
chain: ASNDYTQQATQSYGAYPTQPGQGYSQQSSQPYGQQSYSGYSQSTDTSGYGQSSYSSYGQSQNTGYGTQSTPQGYGSTGGYGSSQSSQSSYGQQSSYPGYGQQPAPSSTSGSYGSSSQSSSYGQPQSGSYSQQPSYGGQQQSYGQQQSYNPPQGYGQQNQYNSSSGGGGGGGGGGNYGQDQSSMSSGGGSGGGYGNQDQSGGGGSGGYGQQDRG

B3: mCherry:peripherin head domain (2-99) (domain or fragment, human, UniProt P41219 2-99, looked up)
chain: SHHPSGLRAGFSSTSYRRTFGPPPSLSPGAFSYSSSSRFSSSRLLGSASPSSSVRLGSFRSPRAGAGALLRLPSERLDFSMAEALNQEFLATRSNEKQ
binding result [1]: binds

B4: mCherry:neurofilament light isoform head domain (2-100) (domain or fragment, human, UniProt P07196 2-100, looked up)
chain: SSFSYEPYYSTSYKRRYVETPRVHISSVRSGYSTARSAYSSYSAPVSSSLSVRRSYSSSSGSLMPSLENLDLSQVAAISNDLKSIRTQEKAQLQDLNDR
binding result [1]: binds

B5: mCherry:neurofilament medium isoform head domain (2-104) (domain or fragment, human, UniProt P07197 2-104, looked up)
chain: SYTLDSLGNPSAYRRVTETRSSFSRVSGSPSSGFRSQSWSRGSPSTVSSSYKRSMLAPRLAYSSAMLSSAESSLDFSQSSSLLNGGSGPGGDYKLSRSNEKEQ
binding result [1]: binds

B6: mCherry:neurofilament heavy isoform head domain (3-100) (domain or fragment, human, UniProt P12036 3-100, looked up)
chain: SFGGADALLGAPFAPLHGGGSLHYALARKGGAGGTRSAAGSSSGFHSWTRTSVSSVSASPSRFRGAGAASSTDSLDTLSNGPEGCMVAVATSRSEKEQ
binding result [1]: binds
